Assays:
[1] = molecular target: PTHR in membranes of HEK-293-Gs-null cells (clone CL2) (UniProt Q03431); assay: radioligand binding
PTHR = molecular target: T1, PTHR (Homo sapiens, UniProt Q03431); assay: Time-course measurement of cAMP by FRET; format: cell-based; settings: comparison of PTH^WT and its diastereomers, fig. S1B
T1 sequence (Q03431 27-593): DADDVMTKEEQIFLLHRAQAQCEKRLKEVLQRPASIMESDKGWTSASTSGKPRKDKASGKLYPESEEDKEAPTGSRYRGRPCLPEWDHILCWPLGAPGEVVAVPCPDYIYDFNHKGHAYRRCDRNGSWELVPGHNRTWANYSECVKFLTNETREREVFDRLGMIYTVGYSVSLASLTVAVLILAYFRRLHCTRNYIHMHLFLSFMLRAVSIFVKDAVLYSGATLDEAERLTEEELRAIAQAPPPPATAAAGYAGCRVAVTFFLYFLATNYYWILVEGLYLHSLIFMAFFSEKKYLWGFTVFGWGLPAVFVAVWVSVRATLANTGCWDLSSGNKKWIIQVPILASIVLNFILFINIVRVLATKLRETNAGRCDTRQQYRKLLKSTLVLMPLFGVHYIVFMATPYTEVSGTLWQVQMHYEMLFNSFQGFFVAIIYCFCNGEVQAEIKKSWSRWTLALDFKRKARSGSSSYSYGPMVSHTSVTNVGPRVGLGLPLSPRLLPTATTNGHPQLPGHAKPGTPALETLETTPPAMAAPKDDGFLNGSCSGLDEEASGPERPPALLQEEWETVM

PTHR^CFP and βarr-2^YFP = molecular target: T2, PTHR^CFP and βarr-2^YFP (Homo sapiens, UniProt Q03431); assay: Time-course of β-arr2 recruitment by FRET; format: cell-based; settings: comparison of PTH^WT and its diastereomers, fig. S1C
T2 sequence (Q03431 27-593): T1 sequence (Q03431 27-593)

| cAMP production time course (PTHR) | Substance | IC50 [1] [nM] | interaction of PTHR with β-arr2, time course (PTHR^CFP and βarr-2^YFP) |
| --- | --- | --- | --- |
| – | (D)-Leu(7)-PTH_(1–34)-NH2 (PTH^7d) (peptide) | 0.1 | – |
| indistinguishable increases in cAMP | (D)-Asn([10])-PTH1–34 [PTH^10d] | – | stimulated the interaction of PTHR with β-arr2 |
| – | PTH_(1–34) (PTH^WT), the synthetic N-terminal fragment of parathyroid hormone (peptide) | 0.1 | – |

— publication PMC8682804 (Science signaling, 2021)
